Laboratory results reported in article doi:10.1101/2023.11.28.564875 (bioRxiv, 2023).

What was measured:
[1] = molecular target: T1, GST-fused Cα-subunit of mouse PKA (GST-PKAC) (mouse, UniProt P05132 1-351); test: pull-down
[2] = molecular target: T1, GST-fused Cα-subunit of mouse PKA …; test: pull-down; remark: listed apart in the source

B1: His8-DCRD-Myc (domain or fragment)
chain: RQFHGSASSLVEAVLISEGLGQFAQDPKFIEVTTQELADACDLTIEEMENAADDILSGGARQS
Kd [1]: < 1000 nM
IC50 [2]: 880 nM
